Source: patent publication US20230374114A1 (Dana-Farber, published 2023)
Where a chain is given by its changes, count along the chain named.

B1: S1-RBD-R3-T1-C7 Ab (Ab 29) (scFv, V domains shown)
VH: QVQLQQSGPGLVKPSQTLSLTCAISGDSVSSYSDAWNWIRQSPSRGLEWLGRTYYRSKWYNDYAVSVKSRITINPDTSKNQFSLQLSSVTPEDTAVYYCAREIVATTPFRNYYYGMDVWGQGTTVTVSS
VL: NFMLTQPHSVSESPGNTVTISCTRTSGSIASNYVQWYQQRPGSSPTTVIFQDKLRPSGVPDRFSGSIDSSSNSASLTISGLKTEDEADYYCQSYDSSSLWVFGGGTKLTVL
B2: S1-R3-T1-C4 (Ab_8) (scFv, V domains shown)
VH: QVQLVQSGAEVKKPGSSVKVSCKASGGTFSSYAISWLRQAPGQGLEWMGWINPNSGGTNYAQKFQGRVTMTRDTSISTAYMELSRLRSDDTAVYYCARGSGGYYLGWGQGTLVTVSS
VL: QPGLTQPPSVSKGLRQTATLTCTGNSNNVGNQGAAWLQQHQGHPPKLLSYMNNNRPPGISERFSASRSGNTASLTITGLQPEDEADYYCSAWDSSLSRWVFGGGTKLSVL
B3: RBD-R3-E1-B3 Ab (Ab_32) (scFv, V domains shown)
VH: QVQLVQSGAEVKKPGESLKISCKGSGYSFTSYWIGWVRQMPGKGLEWMGIIYPGDSDTRYSPSFQGQVTISADKSISTAYLQWSSLKASDTAMYYCARGWQWHDYWGQGTLVTVSS
VL: QTVVTQEPAVSVALGQTVRITCQGDSLRSYYASWYQQKPGQAPVLVVYDKDKRPSGIPDRFSGSTSGNTASLTITGAQAEDEADYYCNSRDRSDNHVVFGGGTKLTVL
B4: Ab_16 (scFv, V domains shown)
VH: QVQLVQSGGGVVQPGRSLRLSCAASGFTFSNYGMHWVRQAPGKGLEWVALIWERGSKKDYADSVKGRFTVSRDNSKNTLYLQMNSLRPEDTAVYFCAREGISMTGAEYFQHWGQGTLVTVSS
VL: QSVLTQPPSVSGSPGQRVTMSCTGSSSNIGAGYDVHWYQQVPGAAPRLLIYGTNNRPSGVPDRFSGSKSGTSASLTITGLQAEDEADYYCQSYDNSLTDPYVFGTGTKVTVL
B5: Ab 27 (scFv, V domains shown)
VH: QVQLVQSGTEVKKPGASVKVSCKASGYSFTGSHLHWVRQAPGQGLEWMGWINPDSGVINYAQKFQGRVTLTRDTSISTAYMELSGLRSDDTAVYYCARDKAIGYVWALDYWGQGTLVTVSS
VL: QSALTQPPSVSGSPGQSVTISCTGTSSDVGTYNRVSWYQQPPGKAPKLMIYEVSNRPSGVSNRFSGSKSGNTASLTISGLQAEDEADYYCSSYTRTFTYVFGTGTKVTVL
B6: Ab_17 (scFv, V domains shown)
VH: QVQLVQSGGGVVQPGRSLRLSCAASGFTFDDYAMHWVRQVPGKGLEWVSGIDWNSGVIGYADSVKGRFTISRDNVKNSLYLQMNSLRTEDSALYYCAKDIGPGGSGSYYAFDIWGQGTTVTVSS
VL: QSALTQPASVSGSPGQSITISCTGTSSDVGGSKYVSWYQQHPGKAPKVMIYDVTKRPSGVPDRFSGSKSGNTASLTISGLQAEDEADYYCAAWDDSLNGVVFGGGTKLTVL
B7: Ab 26 (scFv, V domains shown)
VH: QVQLVQSGGGLVQPGRSLRLSCAASGFTFDDYAMHWVRQVPGKGLEWVSGIDWNSGVIGYADSVKGRFTISRDNAKNSLYLQMNSLRAEDTALYYCAKDAYSYGFLGAFDIWGQGTMVTVSS
VL: LPVLTQPPSVSVAPGQTASITCGGDNIRTKGVHWYQQKPGQAPLLVIYYASDRPSGIPERFSGSSSGNTATLTISRVEAGDEADYYCQVWDSSSDLVVFGGGTTLTVL
B8: S1-RBD-R3-T1-E2 (Ab7) (scFv, V domains shown)
VH: B7 VH
VL: QPGLTQPPSVSVAPGQTARISCGGNNIGSKSVHWYQQKPGRAPVLVVYEDRGRPSGIPERFSGSNSGNTATLTVSRVEAGDEADYYCQVWDGDSDHYVFATGTKVSIL
B9: Ab 21 (scFv, V domains shown)
VH: QVQLVQSGGGLVQPGGSLRLSCATSGFTFDDYAMHWVRQAPGKGLEWVSGISWNSGSIGYVDSVKGRFTISRDNRNNKVYLQMNNLRAEDTAVYYCARDWWGSIDHWGLGTLVTVSS
VL: QSALTQPRSVSGSPGQSVTISCTGTSSDVGGYDYVSWYQQHPGKAPKLIIYDVSKRPSGVPDRFSGSKSGNTASLTVSGLQAEDEADYYCSSYTSSSPVVFGGGTKLTVL
B10: Ab_18 (scFv, V domains shown)
VH: EVQLVQSGGGVVQPGRSLRVSCAASGFSFSRYGMHWVRQAPGKGLEWVAFIRHDGSKKYYADSVEGRFTISRDNSRNTVSLEMNSLRGEDTAVYYCAKDGRLEAALDDWGQGTLVTVSS
VL: NFMLTQPHSMSGSAGKTVTVSCIRSSGSIANNFVQWYQQRPGSAPTTVIYEDNQRPSGVPDRFSGSIDSSSNSASLTISGLKTEDEADYYCQSYDSSNLVFGGGTRLTVL
B11: Ab_19 (scFv, V domains shown)
VH: EVQLVESGAEVKKPGESLKISCKGSGYSFTSYWIGWVRQMPGKGLEWMGIIYPGDSDTRYSPSFQGQVTISADKSISTAYLQWSSLKASDTAMYYCARRGDLDAFDIWGQGTMVTVSS
VL: QPGLTQPPAASGTPGQRVTVSCSGASANIGSNAVSWFKQFPETAPRLLISGNTHRPSGVPDRVSGSKSGTSASLTISGLQSDDEADYYCAAWDDSLNGYVFGSGTKVTVL
B12: S1-RBD-R3-T1-D7 Ab (Ab_34) (scFv, V domains shown)
VH: QVQLVQSGVEVKKPGESLKISCKGSGYSFTSYWIGWVRQMPGKGLEWMGIIYPGDSDTRYSPSFQGQVTISADKSISTAYLQWSSLKASDTAMYYCARTTYSYGSFDYWGQGTLVTVSS
VL: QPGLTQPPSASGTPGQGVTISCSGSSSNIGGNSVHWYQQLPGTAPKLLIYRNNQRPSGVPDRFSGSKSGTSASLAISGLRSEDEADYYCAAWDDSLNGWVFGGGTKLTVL
B13: RBD-R3-T1-H3 (Ab_2) (scFv, V domains shown)
VH: EVQLVQSGAEVKKPGSSVKVSCKTSGYTFTTSGISWVRQAPGQGLEWMGWISAYNGNTNYAQKLQGRVTMTTDTSTSTAYMELRSLRSDDTAVYYCARDFHLYYGMDVWGKGTLVTVSS
VL: QSALTQPPSASGSPGQSVTISCTGTSSDVGAYNYVSWYQQHPGKAPKLLIYDVTKRPPGVPDRFSGSKSGNTASLTVSGLQAEDEADYYCAVWDDGLNGRVVFGGGTKLTVL
B14: RBD-R3-E1-A5 Ab (Ab_30) (scFv, V domains shown)
VH: QVQLVQSGGGVVQPGKSLRLSCTASGFTFSDFPIHWVRQAPGKGLEWVGVISYDGNIKYYGDSVKGRFTISRDNAKNSLYLQMNSLRVEDTAVYYCARGGSSFDIWGQGTTVTVSS
VL: SYELTQPPSVSEAPRQRVTISCSGSTSNIGNNAVSWYQHLPGKAPKLLIYYNERLPSGVSDRFSGSKSGTSASLAISGLRSEDEADYYCAAWDDSLSGHVVFGGGTKLTVL
B15: Ab 20 (scFv, V domains shown)
VH: QVQLVQSGGGSVKPGGSLRLSCAASGYRLSDYYMHWVRQAPGKGLEWVANIKQDGSEKYYVDSVKGRFTISRDNAKNSLYLQMNSLRAEDTAVYYCARVRGWSRGYFDYWGQGTLVTVSS
VL: NFMLTQPHSVSESPGKTVTISCTGSSGSIASNYVQWYQQRPGSAPTTVIYEDNQRPSGVPDRFSGSIDSSSNSASLLISGLKTEDEADYYCQSYDSSNHWVFGGGTKLTVL
B16: Ab 25 (scFv, V domains shown)
VH: QVQLVQSGGGLVQPGGSLRLSCAASGFTFSSYWMSWVRQAPGKGLEWVANIKQDGSEKYYVDSVKGRFTISRDNAKNSLYLQMNSLRAEDTAVYYCARGFYYYGAFDIWGQGTTVTVSS
VL: B15 VL with D68G, L77T
B17: S1-RBD-R3-T1-B12 Ab (Ab_31) (scFv, V domains shown)
VH: QVQLVQSGAEVKKPGSSVKVSCKASGGTFSSYTISWVRQAPGQGLEWMGGIIPILGTPNYAQKFQDRVAITADKSTSTAYMELSSLRSEDTAVYYCAVGSGWYSGFDYWGQGTLVTVSS
VL: B15 VL with N53S, L77T, Y94F, D95H, S96N, H99P, W100V, V101I
B18: Ab 28 (scFv, V domains shown)
VH: QVTLKESGPGLVNPSETLSLTCTVSGASISNSFWSWIRQSPGKGLEWIGYTSYSGNSIYNPSLKSRLTMSIDTSKNQLSLNLRSLTAADTAVYYCARREWIKGHFDYWGQGTLVTVSS
VL: B15 VL with S26G, L77T, H99P, W100V
B19: RBD-R3-E1-G7 (Ab2-10) (scFv, V domains shown)
VH: EVQLVESGPGLVKPSETLSLTCTVSGGSISSYYWSWIRQPAGKGLEWIGRIYTSGSTNYNPSLKSRVTMSVDTSKNQFSLKLSSVTAADTAVYYCARDVGFGWFDRWGQGTLVTVSS
VL: B15 VL with G24R, A44S, L77T, K82T, Y94F, S97A, N98S, H99L
B20: S1-RBD-R3-T1-F5 (Ab2-7) (scFv, V domains shown)
VH: QVTLKESGPTRVKPTQTLTLTCTFSGFSLSTTGVGVGWIRQPPGKALEWLALIYWNDDKRYSPSLKSRLTITKDTSKNQVVLTMTNMDPVDTATYYCARISGSGYFYPFDIWGQGTTVTVSS
VL: B15 VL with G24R, A44S, L77T, T83A, N98S, H99L
B21: Ab_13 (scFv, V domains shown)
VH: B20 VH with T10K, R11L, T32S, N56D, T72A, N78Y, T117M, S122A
VL: B15 VL with G24R, L77T, H99L
B22: Ab 23 (scFv, V domains shown)
VH: EVQLVQSGAEVKKPGSSVKVSCRSSGGTFSTYGITWVRQAPGQGLEWMGRIIPSLGIPNYAQKFQGRVTITADTSVSTAWMELSSLESDDTAIYYCARENIDLATNDFWGQGTLVTVSS
VL: QSALTQPPSASGSPGQSVTISCTGTSRDIGAYGYVSWYQQVPGKAPKLIIYEVRNRPSGVSSRFSGSKSGNTASLTISGLQAEDEADYYCSSYTSSSTLDVVFGGGTKLTVL
B23: Ab_14 (scFv, V domains shown)
VH: QVQLQQSGPGLVKPSQTLSLTCAISGDSVSSNSAAWNWIRQSPARGLEWLGRTYYRSRWYNDYAISMKSRITINPDTSKNQFSLQLESVTPEDTAVYYCAREIRGFDYWGQGTLVTVSS
VL: QSVLTQPPSASGSPGQSVTISCTGTSSDVGAYNFVSWYQHHPGKAPKLIIYDFNKRPSGVPDRFSGSKSGNTASLTVSGLQADDEADYYCSSYAGSNNFDVVFGGGTKLTVL

Each binder was assayed against WT Spike (SARS-CoV-2, UniProt P0DTC2 16-1213).

Binder	Kd
B1	149 pM
B2	7.15 pM
B3	6.32 pM
B4	11.8 pM
B5	8.78 pM
B6	6.35 pM
B7	11 pM
B8	7 pM
B9	9.25 pM
B10	9.07 pM
B11	8.9 pM
B12	6.58 pM
B13	199 pM
B14	1.02 pM
B15	9.01 pM
B16	8.9 pM
B17	< 1 pM
B18	8.9 pM
B19	5.65 pM
B20	7.85 pM
B21	8.55 pM
B22	8.84 pM
B23	8.22 pM
